Experimental data taken from patent publication US20140114054A1 (UNIVERSITY OF MIYAZAKI, published 2014).

Biological target: human TfR on TfR-expressing cells (human, UniProt P02786 1-760)
Test: cell-based or functional assay

human TfR on TfR-expressing cells, sequence (P02786 whole entry): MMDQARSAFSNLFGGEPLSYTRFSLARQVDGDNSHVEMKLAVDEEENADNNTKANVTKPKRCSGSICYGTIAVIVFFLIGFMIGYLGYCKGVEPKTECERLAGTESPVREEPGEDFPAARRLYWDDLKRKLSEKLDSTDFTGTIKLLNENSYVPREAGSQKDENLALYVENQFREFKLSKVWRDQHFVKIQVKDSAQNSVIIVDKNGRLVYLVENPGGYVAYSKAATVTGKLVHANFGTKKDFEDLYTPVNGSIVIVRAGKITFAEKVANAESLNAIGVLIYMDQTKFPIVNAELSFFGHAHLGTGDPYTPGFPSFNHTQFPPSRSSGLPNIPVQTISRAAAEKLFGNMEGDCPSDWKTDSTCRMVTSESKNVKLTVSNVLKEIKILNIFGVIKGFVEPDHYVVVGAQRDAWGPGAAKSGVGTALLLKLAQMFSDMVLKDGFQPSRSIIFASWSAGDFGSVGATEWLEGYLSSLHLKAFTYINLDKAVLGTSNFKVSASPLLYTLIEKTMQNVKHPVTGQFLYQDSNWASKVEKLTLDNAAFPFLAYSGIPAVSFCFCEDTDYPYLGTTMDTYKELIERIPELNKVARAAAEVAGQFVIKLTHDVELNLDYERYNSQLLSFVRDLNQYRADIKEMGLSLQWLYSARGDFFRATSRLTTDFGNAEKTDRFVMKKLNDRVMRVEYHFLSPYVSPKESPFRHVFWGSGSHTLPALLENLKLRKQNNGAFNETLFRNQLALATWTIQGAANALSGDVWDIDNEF

IC50 (ng/ml) of cell growth, A431: 36 ng/mL
IC50 (ng/ml) of cell growth, A549: 41 ng/mL
IC50 (ng/ml) of cell growth, BFTC905: 44 ng/mL
IC50 (ng/ml) of cell growth, DU145: 33 ng/mL
IC50 (ng/ml) of cell growth, HT29: 25 ng/mL
IC50 (ng/ml) of cell growth, K562: 50 ng/mL
IC50 (ng/ml) of cell growth, KLM1: 30 ng/mL
IC50 (ng/ml) of cell growth, MIAPaCa-2: 55 ng/mL
IC50 (ng/ml) of cell growth, MKN45: 26 ng/mL
IC50 (ng/ml) of cell growth, MT-2: 71 ng/mL
IC50 (ng/ml) of cell growth, NCI-H358: 37 ng/mL
IC50 (ng/ml) of cell growth, NCI-H1373: 127 ng/mL
IC50 (ng/ml) of cell growth, PK45-P: 100 ng/mL
IC50 (ng/ml) of cell growth, RAMOS: 8 ng/mL
B1: TfR006 IgG antibody (antibody, V domains shown)
VH: QVQLVQSGGGVVQPGRSLRLSCAASGFPFKSYGMHWVRQAPGKGLEWVAVISFDGSSKYYADSVKGRFTISRDNSKNTLYLQMNSLRGEDTAVYYCARDSNFWSGYYSPVDVWGQGTTVTVSS
VL: NFMLTQPHSVSESPGKTVTISCTRSSGSIASNSVQWYQQRPGSAPITVIYEDTQRPSGVPDRFSGSIDSSSNSASLTISGLQTEDEADYYCQSYDSAYHWVFGGGTKLAVL
